Test results taken from paper PMC8413895.

Target: HIV-1 Env variant ADA.CM, trimer on virions (HIV-1 (ADA.CM))

4E10 Fab (parental, wild-type) gave an IC50 of neutralization of ADA.CM pseudovirus, TZM-bl assay of 2.7 µg/mL.
